Reference: doi:10.1101/465930

Target: FGFR1 extracellular domain (UniProt P11362)
Assay: optical biosensor

UniProt P11362, sequence (P11362 22-376): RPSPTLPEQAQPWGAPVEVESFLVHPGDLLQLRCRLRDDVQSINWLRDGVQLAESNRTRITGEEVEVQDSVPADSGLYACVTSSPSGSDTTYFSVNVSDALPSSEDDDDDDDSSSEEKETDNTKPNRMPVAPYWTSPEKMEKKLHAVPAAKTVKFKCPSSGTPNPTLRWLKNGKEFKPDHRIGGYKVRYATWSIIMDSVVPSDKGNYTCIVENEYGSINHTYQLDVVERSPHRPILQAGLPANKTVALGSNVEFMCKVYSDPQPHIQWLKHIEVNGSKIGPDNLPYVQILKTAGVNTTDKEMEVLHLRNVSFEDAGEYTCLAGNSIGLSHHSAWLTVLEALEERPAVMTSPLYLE

## Ncad-Fc (from UniProt P19022 160-724) (Fc fusion)
  Kd: 106 nM
